Biological target: the molecule itself
Test: mass photometry; TWOMP (Refeyn), room temperature, 1X PBS with 1 mM β-mercaptoethanol, proteins at 10 nM-400 nM; hALDH2 with NAD+, with or without mcGAS; tetramer formation

B1: His-ALDH2, purified full-length human ALDH2 (enzyme, UniProt P05091 18-517, looked up)
chain: SAAATQAVPAPNQQPEVFCNQIFINNEWHDAVSRKTFPTVNPSTGEVICQVAEGDKEDVDKAVKAARAAFQLGSPWRRMDASHRGRLLNRLADLIERDRTYLAALETLDNGKPYVISYLVDLDMVLKCLRYYAGWADKYHGKTIPIDGDFFSYTRHEPVGVCGQIIPWNFPLLMQAWKLGPALATGNVVVMKVAEQTPLTALYVANLIKEAGFPPGVVNIVPGFGPTAGAAIASHEDVDKVAFTGSTEIGRVIQVAAGSSNLKRVTLELGGKSPNIIMSDADMDWAVEQAHFALFFNQGQCCCAGSRTFVQEDIYDEFVERSVARAKSRVVGNPFDSKTEQGPQVDETQFKKILGYINTGKQEGAKLLCGGGIAADRGYFIQPTVFGDVQDGMTIAKEEIFGPVMQILKFKTIEEVVGRANNSTYGLAAAVFTKDLDKANYLSQALQAGTVWVNCYDVFGAQSPFGGYKMSGSGRELGEYGLQAYTEVKTVTVKVPQKNS
notes: aldehyde dehydrogenase 2 (ALDH2), human, full-length gene, codon-optimised, in pET28a; Two preparations: likely apo hALDH2, and tetrameric hALDH2 isolated by SEC after incubation with 1 mM NAD+; Tetramer forms with NAD+ (mass photometry); also called hALDH2; bacterially purified ALDH2 proteins; source: E. coli Rosetta (DE3), purified (Ni Sepharose, Q column, SEC); not shown: His6, N-terminal, kept
  stoichiometry N: 4

From PMC12697864, “cGAS Inhibits ALDH2 to Suppress Lipid Droplet Function and Regulate MASLD Progression” (Advanced Science, 2025)
